Assay results taken from the NTF2 design screens of Basanta et al. (2020).

Test: protease stability score; higher = more stable; yeast display proteolysis, trypsin and chymotrypsin;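 further: log10 excess protease needed over predicted unfolded state with 0 meaning unfolded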

| Sequence | protease stability score |
| --- | --- |
| DEQKDEEIRRVIENNDWTEVKELADENVKASVGDKRYHGREEMEKFWKIVHDRADHIEYQDIHVHNGQFNAQVVINVNGQELDVQITMRAENGKITNMSIHATSEEVKERIKEMFS | 0.73 |
| DEQKEAEDIINTWREVLKDNDTDKARELADKHVRVVVGDKELHGREDFVRYFHEVAHRVDHIDIDVLDLTVHNGRIHFEADAVADVNGRKDTFVIRMVWQSQGDKHNMQEMHVP | -0.09 |
| DEQKEMKRFANQFNSAIRHGDEKKMADLFDPNARMEVGDTSWNGRRNLEKEWKRRNETIDHARVHLQDVSVDGNSATVVFVLVENVNGEERNDVYVFVAVKHNGKIVIDHMTQK | 0.159 |
| DEQKERDKAKKIARNFQKNNEHRFEEMMDPNVKFVYGDKEVNGRDTYRKNLHELMTRADSVDIDHVDVRNGRVNVNLVVEVNGNRAEDRVQFTVHNGHIVKVNIDPKVMETAKS | -0.326 |
| DEQKIKELLYKAAEAYINGNDELVRKLLKDDGKLEAGDYEYRGVDQVVKVAQDFKKYGVELEIKNYKYDGDRLDVEVELHLGGTTWKFTVTVQADGGKVDKVQFHFSEEARKRIQDG | 0.447 |
| DEQKLAEDLAKEIIKALETGNSHRLHELMDENARLRVGDKDYTGDHRIAKWMKHKRDRVDRVEATIQEIDADGDKVTIVIEIVFDHNGRRERVIVDARAEIRGDKVRMKELHWS | -0.101 |
| DEQKQAHDLLRQLDEAMRENDPDTMRDLFDKDAHVKVGDKEFRGTQKVREFNEELKRQADHFSVDVKRMETRPGHFNVQLVLHMETNGRTDHLKFRVRMRVVNGRAVVVTLHQG | 0.692 |
| DEQKQRDFAHTYKDVFNTGDPDEQRKMVDPNARAQVGDNDFHGDEEFDKWAEERRDRVDHVEIRSMSVHGNKVSMDVDVVYDGRRVRFSMRMEYHNGRFKHFKVNPDSQRKLEG | 0.615 |
| DEQKTRQLEEVKKQLEHGNEREAKKNFDENVHINVGDKQIHGMHDAAREMATSWTQIRNEMTITRVHVRGDKIEIRASMVQNTNGRPRKAKVHIDVRINNGKIKRVTVKYDG | 0.181 |
| DEQLNKHFVRLMQNNDFEELVRNADKDVRVRIGNKEYQGREEANTALKTFHKQVDKLTIRSYDYHNGSAKIDLEVRFNGQKFRFVVTARLHNGKMKSMRINFTNPEDQKQLDRDMS | 1.41 |
| DEQLRDRVTQLFKVWQTGDPKKVSEMFDKDARLEYGDKTVHGMEEARHQQDTRRREARLSLDIRSINVQGNQVEIDVRIEEDENGKPDTKQVTIRIRARNGRIHNAKLQDDG | 0.1 |
| DEQLVKILQRFRKAMEHGDPKEAQKYFDPNAEFVYGDKEIHGREQVNTWIHTFMRSIRVDIKSLTVRASGNKAHIQYSAVYEENGRPKTAHFHMTVQVTNGKIKHADVKYRG | 1.1 |
| DEQNEAKRLVEKLQSIVKSGDEEEWMKQFDENVKVSVGDKTVHGREDMVKQYQQHVKRADTMELQVNEYSVHNGRVSIRYKMRVDVNGQRHTTEAHVDFRNVNGRFKAQSVNQK | 0 |
| DEQNLQDAAQRVDEVLRKGNEEDVTKMMDKDATMTVGDKVIHGRSKVRQQVRRLHEQVDHQEVEYVTAHNGRIKINMQADVNGQSLTFTVHIKVRNGRVKEIQIDPDYKRNLDR | -0.224 |
| DEQNQIKKIADDLETAARTNDPDKLLNMVDPNAKITYGDEEVHGRREAKRWLKEVNDHVDHMHVDIKRVHASGDKFTLRYRLVLVQNGKKDTTRVVATLRRTDGRVQIQSIDSG | 0.033 |
| DEQQAKRVAEEFNRVLQTGDNRKAMQLADKDVKLHVGDKDVHGRETMMKLVRKERDRVDHVEIKEVTIQGNKIDVILTVVVNGRHKEKHYVLHLHNGRIEDLSVRST | 0.005 |
| DEQRIADNLDERFRRVMENNNEDELRKLFDKDARVRVGDKTLHGREEVDKRLREILQRADHIDIKVNDIHVRGDKINIHFKIRIVVDGRDRFYTAVVRADVHNGEAKIVELKQS | 0.213 |
| DEQRQAEEWVDKLESELHDGDFTKFANMADENARIVIGDKEIHGRENLQEHAKELKHRVDHVEMHVRHLYVTNGTLTVDVDMVLNHNGQRDKRRVVIVATSENGKFRAQHVTYS | 1.05 |
| DEQRYRELMETAFHLVISGDEDTLDQIGKPNMEYHYVDRTLHGKDVLRVLVKIVKRVGAEARVEEAEVNGDTARAKFQYRKGDNTVQTDAEVKYEGDQIKKARVRLNDEVRKVLKDG | 0.174 |
| DEQSEAEKFARDIQKIANHNNFERLARMADKDVKYNVGDKVITGEEKAIEHHRRLQKQFDSMRLEIESVRVQGEKIVVVARYTVEVNGTTRSERFVLVAEVHNGTIRIKTVQQG | -0.167 |
| DEQSVAEELFENLQDAVRENNPDEYKKLVDPNVNFDVGDKKVHGREQASEKFRQDLERADHIDMKVTSLRVDNGRAQADVRVTRVINGESETVEYILRFEVHGDEAVVKSQHDK | 0.45 |
| DEQTAAKKANELAEAISTGDPERVMELADKDVKVVVGDKTYHGKEDLREMAKRFRDRVDHAQIDSVTNDGEHAKIHMRVEVNGHTVEIDLVIEARNGHAKHLQVDPDDQRKLEG | 0.919 |
| DEQTHAEELARNFVTAIRTNNDQDIRDLFDKDARVEVGDKTIHGRENIARSIITIAKRVDSVDIRIQHVEVQGDKINIKMERRYDHNGQEHKKDLTMVARLTNGHMRIKVVKMD | 0.885 |
| DEQTKAERFVQRVEEILKHGDEKKYAHLADKNVKVKYGDKEWHGREHWEKEVKKTRDKVDDIRIDYKELQVHNGKVDVRFQVRNNHNGKNESRDASYTLDDHNGRIRIQSMHVK | -0.009 |
| DEQTKAQQFAEDVVKANQQNDKDRLTEQFDKNARVQVGEKEVHGREHIMEELIKLMTEADKVDVKVRHVHAQGDKVHLDIHFRMRVNGQDHDSRMTIVARNSNGTVVIESVDVK | 1.19 |
